The record followed here is the supplement of paper PMC10567573.

The nature of the series: protein stability index of a GFP-peptide fusion (GPS, HEK-293T) (PSI 1-6); higher = more stable. As to conditions: c terminus: a fixed tail appended.

± gives the standard deviation.
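Further: 24-mer peptide tiles fused after GFP, lentivirally expressed, FACS-sorted into six equal bins by GFP/DsRed ratio, decoded by Illumina sequencing, PSI is the read-weighted mean bin number.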

On to VEVDENAYRCGSGMQMAEDSKSLK [NET1], for which the protein stability index reads like this: (treatment: DMSO) 4.98 ± 0.26; (treatment: MLN4924 1 uM, 8 h) 4.99 ± 0.31.

As to VFPPEVPISEKAKDLILRFCIDSE [STK38L], the protein stability index runs as follows: (treatment: DMSO) 3.06 ± 0.35; (treatment: MLN4924 1 uM, 8 h) 3.32 ± 0.42.

For VGKSEILESLQDGAAESPYSHLGG [RAB40A], the protein stability index is, setting by setting: (treatment: DMSO) 4.56 ± 0.27; (treatment: MLN4924 1 uM, 8 h) 4.46 ± 0.19.

For VGPAEPTLVNFHLKRSIPQVSPVR [CPN1], the protein stability index is, setting by setting: (treatment: DMSO) 3.44 ± 0.17; (treatment: MLN4924 1 uM, 8 h) 3.4 ± 0.32.

Consider VGQDNGAVMEFHVSEDFNKMNFIK [WDFY1], for which the protein stability index runs as follows: (treatment: DMSO) 3.29 ± 1.1; (treatment: MLN4924 1 uM, 8 h) 3.14 ± 0.36.

As to VIFQREQESKNQVHRRGEYNVYST [PPP2R2B], the protein stability index is, setting by setting: (treatment: DMSO) 3.06 ± 0.14; (treatment: MLN4924 1 uM, 8 h) 3.04 ± 0.23.

Consider VISVVSYLILALLSVTISFRIYKS [RTN3], for which the protein stability index was 3.21 ± 0.65 (treatment: DMSO) and 2.8 ± 0.29 (treatment: MLN4924 1 uM, 8 h).

In the case of VKEAPAPTPTSLEVSSPPDTTEEV [PDZK1], the protein stability index was 5.57 ± 0.25 (treatment: DMSO) and 5.49 ± 0.3 (treatment: MLN4924 1 uM, 8 h).

Sequence VKILEPKTKEVQHNCQLHRISFCA [GULP1] yielded a protein stability index (treatment: DMSO) of 2.33 ± 0.22 and a protein stability index (treatment: MLN4924 1 uM, 8 h) of 2.25 ± 0.17.

Regarding VLAEGDNASRSLYPDAEDPQLGLD [PSD2], the protein stability index reads like this: (treatment: DMSO) 5.52 ± 0.25; (treatment: MLN4924 1 uM, 8 h) 5.34 ± 0.15.

Take VLDLRKNSHQDFWTVWSGNRASLY [PRAME]: the protein stability index came out at 2.19 ± 0.3 (treatment: DMSO) and 2.3 ± 0.19 (treatment: MLN4924 1 uM, 8 h).

In turn, VLEGPAPWGFRLQGGKDFNVPLSI [PDLIM7] yielded a protein stability index (treatment: DMSO) of 2.31 ± 0.12 and a protein stability index (treatment: MLN4924 1 uM, 8 h) of 2.44 ± 0.17.

Consider VLLAVLPVLLLQITVGLVFLCLQY [MOG], for which the protein stability index is, setting by setting: (treatment: DMSO) 3.18 ± 0.24; (treatment: MLN4924 1 uM, 8 h) 3.13 ± 0.32.

For VLMCGFPFLLLFLGNFFTTLRVVH [TMEM120A], the protein stability index was 2.95 ± 0.24 (treatment: DMSO) and 3.23 ± 0.48 (treatment: MLN4924 1 uM, 8 h).

As for VLRFLPAFVRMKQLIEEGYVGEPL [GFOD1], the protein stability index runs as follows: (treatment: DMSO) 2.2 ± 0.25; (treatment: MLN4924 1 uM, 8 h) 2.17 ± 0.13.

VLRHFHLLSDGSNTLSVSYKKGRM [SLC6A17]: the protein stability index came to 2.12 ± 0.39 (treatment: DMSO) and 2.61 ± 0.17 (treatment: MLN4924 1 uM, 8 h).

VNLYLGRSHFLWKEPATMSWLEEN [TCF25]: the protein stability index amounted to 2.36 ± 0.53 (treatment: DMSO) and 2.54 ± 0.56 (treatment: MLN4924 1 uM, 8 h).

As for VPRTEAPAPASSTPQEPWPGPTAP [PDLIM7], the protein stability index is, setting by setting: (treatment: DMSO) 4.98 ± 0.22; (treatment: MLN4924 1 uM, 8 h) 5.2 ± 0.27.

Consider VRHNLGDTRLGQVSALPLPPAMKR [SPSB2], for which the protein stability index came out at 3.89 ± 0.097 (treatment: DMSO) and 3.98 ± 0.33 (treatment: MLN4924 1 uM, 8 h).

On to VRTAAIKAMLQLHERGLKLHQTIY [INTS4], for which the protein stability index amounted to 2.58 ± 0.35 (treatment: DMSO) and 2.44 ± 0.33 (treatment: MLN4924 1 uM, 8 h).

As to VRYLNAYTGIVLLRCRKEFYQLVW [POP5], the protein stability index amounted to 1.94 ± 0.34 (treatment: DMSO) and 2.46 ± 0.74 (treatment: MLN4924 1 uM, 8 h).

With VSLDISPDLPFQIKPSENHYSLLT [PCDHGC5], the protein stability index (treatment: DMSO) was 2.22 ± 0.31 and the protein stability index (treatment: MLN4924 1 uM, 8 h) amounted to 2.46 ± 0.17.

For the sequence VSRRTSEACMTHLHYKWIPVEDSH [DUSP5], the protein stability index by setting is: (treatment: DMSO) 3.04 ± 0.34; (treatment: MLN4924 1 uM, 8 h) 3.08 ± 0.21.

As to VSVRVQPRGRAHLLPNPYQQDFLG [C22orf15], the protein stability index turned out to be 2.2 ± 0.18 (treatment: DMSO) and 2.13 ± 0.35 (treatment: MLN4924 1 uM, 8 h).

Take VTKITLESFLAWKKRKRQEKIDKL [ZC3H15]: the protein stability index was found to be 2.78 ± 0.81 (treatment: DMSO) and 2.6 ± 0.47 (treatment: MLN4924 1 uM, 8 h).

On to VTLEASRENSKPRAILKPRKVCVG [PPP2R2B], for which the protein stability index is, setting by setting: (treatment: DMSO) 3.54 ± 0.23; (treatment: MLN4924 1 uM, 8 h) 3.8 ± 0.32.

On to VTSTSQSPHSPDSSQSSLAQEEEE [DDIT3], for which the protein stability index reads like this: (treatment: DMSO) 5.53 ± 0.1; (treatment: MLN4924 1 uM, 8 h) 5.64 ± 0.12.

In the case of VVGWFVLFYKPGIVLLLALAKYLK [GULP1], the protein stability index (treatment: DMSO) turned out to be 2.25 ± 0.41 and the protein stability index (treatment: MLN4924 1 uM, 8 h) was 2.37 ± 0.56.

Regarding VVLGSGGVGKSALTVQFVQGIFVE [RAP1B], the protein stability index was 2.99 ± 0.05 (treatment: DMSO) and 2.96 ± 0.44 (treatment: MLN4924 1 uM, 8 h).
